Data taken from IntAct's records for PubMed 19805280.

B1: Protein DOA1 (Saccharomyces cerevisiae), P36037 (parent)
chain: MGYQLSATLKGHDQDVRDVVAVDDSKVASVSRDGTVRLWSKDDQWLGTVVYTGQGFLNSVCYDSEKELLLFGGKDTMINGVPLFATSGEDPLYTLIGHQGNVCSLSFQDGVVISGSWDKTAKVWKEGSLVYNLQAHNASVWDAKVVSFSENKFLTASADKTIKLWQNDKVIKTFSGIHNDVVRHLAVVDDGHFISCSNDGLIKLVDMHTGDVLRTYEGHESFVYCIKLLPNGDIVSCGEDRTVRIWSKENGSLKQVITLPAISIWSVDCMSNGDIIVGSSDNLVRIFSQEKSRWASEDEINELSTQVEKSTISSKTIEFDESKLSPYEILQSPGRKEGQIVVVKSPQGTIEAHQFSNSSWKKVGDVVGAGATGNDKKIEFEGKTYDYVFDVDIEDGKPPLKLPINVSDNPYTAADNFLARYELPMSYRDQVVQFILKNTNGISLDQPNDNASSSAVSPSKTSVMKVLPVKQYLIMENYNPDTIFNGIVKINSNEKTFDDEILAQIGGALHDIDESWELLLSFANTIRSNWEIKTPAYDIVRLIVKKLPYSSDIKDYIEEGLGNKNITLTMLTVRILVNCFNNENWGVKLLESNQVYKSIFETIDTEFSQASAKQSQNLAIAVSTLIFNYSALVTKGNSDLELLPIVADAINTKYGPLEEYQECEEAAYRLTVAYGNLATVEPTLRQFANSVTWLANIKRSYGNVPRFKDIFDDLS

Variants of: B1
Details: with cdc48_yeast CDC48, P25694
Chain of cdc48_yeast CDC48, P25694 (P25694 whole entry): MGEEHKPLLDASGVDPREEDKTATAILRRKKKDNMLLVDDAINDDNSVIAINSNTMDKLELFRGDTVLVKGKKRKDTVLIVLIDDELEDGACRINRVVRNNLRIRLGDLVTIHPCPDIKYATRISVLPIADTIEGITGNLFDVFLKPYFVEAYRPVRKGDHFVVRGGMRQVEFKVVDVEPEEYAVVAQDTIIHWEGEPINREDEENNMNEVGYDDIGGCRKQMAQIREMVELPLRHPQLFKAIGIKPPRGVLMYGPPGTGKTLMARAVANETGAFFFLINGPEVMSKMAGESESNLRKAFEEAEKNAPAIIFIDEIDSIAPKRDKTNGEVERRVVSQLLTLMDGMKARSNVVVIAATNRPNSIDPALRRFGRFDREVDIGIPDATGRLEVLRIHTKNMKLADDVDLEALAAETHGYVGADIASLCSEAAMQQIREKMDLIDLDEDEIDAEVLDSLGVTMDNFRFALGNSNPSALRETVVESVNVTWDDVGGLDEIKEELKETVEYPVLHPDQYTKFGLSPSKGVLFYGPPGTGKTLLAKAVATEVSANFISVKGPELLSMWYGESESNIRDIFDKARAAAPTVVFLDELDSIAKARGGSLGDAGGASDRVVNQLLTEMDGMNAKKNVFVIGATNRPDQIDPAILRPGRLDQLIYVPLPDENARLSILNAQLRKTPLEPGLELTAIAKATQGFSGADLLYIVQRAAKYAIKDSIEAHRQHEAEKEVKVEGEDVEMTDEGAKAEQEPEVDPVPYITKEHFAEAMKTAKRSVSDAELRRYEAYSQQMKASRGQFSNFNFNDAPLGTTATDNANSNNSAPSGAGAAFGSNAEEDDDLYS

Row | effect of a mutation on the interaction | Variant
1 | decreasing interaction | R669A
2 | disrupting interaction | R541A
3 | decreasing interaction | N578A

Variants of: B1
Details: with cdc48_yeast CDC48, P25694
Remark: another data set of the same source

Row | effect of a mutation on the interaction | Variant
4 | disrupting interaction | R541A;R669A
